Key:
[1] = target: T1, cynomolgus monkey ROR2 in which threonine at position 322 is replaced by methionine (ROR2mf-T322M) (cynomolgus monkey (Macaca fascicularis), UniProt Q01974 34-943 (human entry)); experiment: flow cytometry on CHO cells expressing ROR2mf-T322M
T1 construct: also called RORmf-T322M

[2] = target: human (Homo sapiens) ROR2, full length, on cells (human, UniProt Q01974 34-943); experiment: cell-based or functional assay
[3] = target: T2, his-tagged ROR2 extracellular domain (ROR2-ECD, G&P Biosciences, cat. no. FCL0192) (human, UniProt Q01974 34-403); experiment: BLI (Octet), antibody on anti-human IgG Fc sensor, ROR2-ECD 1.56-100 nM as analyte
T2 construct: Bought protein; also called human ROR2-ECD; recombinant human ROR2-ECD; not shown: his tag
T2 sequence (Q01974 34-403): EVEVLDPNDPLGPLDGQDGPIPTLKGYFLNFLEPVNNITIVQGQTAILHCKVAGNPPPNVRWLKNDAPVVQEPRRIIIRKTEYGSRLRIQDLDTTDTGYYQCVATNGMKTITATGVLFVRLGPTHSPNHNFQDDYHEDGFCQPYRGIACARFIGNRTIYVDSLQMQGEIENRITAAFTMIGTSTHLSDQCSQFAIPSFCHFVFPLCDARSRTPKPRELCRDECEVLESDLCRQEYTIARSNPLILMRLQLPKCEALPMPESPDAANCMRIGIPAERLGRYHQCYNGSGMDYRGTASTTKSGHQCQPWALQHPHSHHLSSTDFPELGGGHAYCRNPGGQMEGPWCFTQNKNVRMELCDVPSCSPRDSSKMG

[4] = target: T3, cynomolgus monkey (Macaca fascicularis) ROR2, full length, on CHO cells (cynomolgus monkey (Macaca fascicularis), UniProt Q01974 34-943 (human entry)); experiment: flow cytometry on CHO cells expressing cynomolgus monkey ROR2
T3 construct: also called ROR2mf; CHO-mfROR2
T3 chain: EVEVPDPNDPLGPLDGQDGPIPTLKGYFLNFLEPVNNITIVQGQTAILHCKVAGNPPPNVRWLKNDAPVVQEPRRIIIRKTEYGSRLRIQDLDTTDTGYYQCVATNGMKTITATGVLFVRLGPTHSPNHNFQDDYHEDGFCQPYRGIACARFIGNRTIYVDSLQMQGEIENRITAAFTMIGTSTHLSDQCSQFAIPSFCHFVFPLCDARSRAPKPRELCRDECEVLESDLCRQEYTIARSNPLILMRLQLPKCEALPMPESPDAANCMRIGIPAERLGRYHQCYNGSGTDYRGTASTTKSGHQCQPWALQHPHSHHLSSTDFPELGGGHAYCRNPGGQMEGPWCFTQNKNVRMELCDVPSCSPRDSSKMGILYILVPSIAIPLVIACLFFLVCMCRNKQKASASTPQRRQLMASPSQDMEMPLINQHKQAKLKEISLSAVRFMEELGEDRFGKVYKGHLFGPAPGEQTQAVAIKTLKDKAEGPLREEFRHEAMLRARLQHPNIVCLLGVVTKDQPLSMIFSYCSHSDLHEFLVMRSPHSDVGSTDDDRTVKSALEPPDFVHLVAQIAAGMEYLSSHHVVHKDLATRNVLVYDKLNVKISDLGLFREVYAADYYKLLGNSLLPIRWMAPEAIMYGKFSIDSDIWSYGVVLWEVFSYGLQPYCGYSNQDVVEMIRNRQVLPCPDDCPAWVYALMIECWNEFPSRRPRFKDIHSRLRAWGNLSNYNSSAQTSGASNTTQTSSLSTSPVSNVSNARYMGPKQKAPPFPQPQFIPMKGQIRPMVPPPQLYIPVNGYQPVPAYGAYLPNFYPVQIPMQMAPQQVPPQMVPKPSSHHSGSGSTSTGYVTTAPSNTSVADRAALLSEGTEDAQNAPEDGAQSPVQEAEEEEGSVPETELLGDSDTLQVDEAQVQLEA
Procedure: Next, binding of bispecific CD3×ROR2 antibodies and monospecific ROR2 antibodies to CHO cells expressing human or cynomolgus monkey ROR2 was determined, using 5×10⁴ transfected cells/well and an antibody concentration range from 0.01-10 μg/mL.

Sequence of human (Homo sapiens) ROR2, full length, on cells (Q01974 34-943 limits assumed): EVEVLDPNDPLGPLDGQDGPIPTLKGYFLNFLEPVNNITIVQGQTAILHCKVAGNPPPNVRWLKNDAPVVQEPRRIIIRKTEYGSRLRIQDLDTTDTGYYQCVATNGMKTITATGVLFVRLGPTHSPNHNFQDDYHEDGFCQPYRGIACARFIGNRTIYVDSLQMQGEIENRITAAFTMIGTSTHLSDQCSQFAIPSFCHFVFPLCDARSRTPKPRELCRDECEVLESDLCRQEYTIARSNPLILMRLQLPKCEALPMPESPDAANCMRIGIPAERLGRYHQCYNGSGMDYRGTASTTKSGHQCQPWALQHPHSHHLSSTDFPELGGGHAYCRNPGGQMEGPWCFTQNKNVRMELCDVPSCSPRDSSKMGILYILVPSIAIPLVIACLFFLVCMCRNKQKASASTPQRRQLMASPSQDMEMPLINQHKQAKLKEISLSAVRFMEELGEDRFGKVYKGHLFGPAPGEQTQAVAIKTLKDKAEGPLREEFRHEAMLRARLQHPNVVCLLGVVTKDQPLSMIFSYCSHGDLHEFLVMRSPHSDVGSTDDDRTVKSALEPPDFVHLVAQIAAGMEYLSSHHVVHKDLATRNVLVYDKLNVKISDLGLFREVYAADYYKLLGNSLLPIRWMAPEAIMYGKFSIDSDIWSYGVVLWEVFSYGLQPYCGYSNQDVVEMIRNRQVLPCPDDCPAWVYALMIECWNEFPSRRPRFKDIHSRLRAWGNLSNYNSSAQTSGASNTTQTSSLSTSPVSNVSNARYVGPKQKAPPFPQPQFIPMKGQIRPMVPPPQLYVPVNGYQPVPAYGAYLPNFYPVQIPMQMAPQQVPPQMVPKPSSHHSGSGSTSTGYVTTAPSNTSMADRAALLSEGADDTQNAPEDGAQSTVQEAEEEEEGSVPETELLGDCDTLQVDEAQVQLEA

Row | binding result [1] | Kd [3] | koff [3] | kon [3] | binding result [4] | Binder | IC50 of T cell mediated cytotoxicity, 786-O cells, human T cells, E:T 8:1 [2] | IC50 of T cell mediated cytotoxicity, Hela cells, human T cells, E:T 8:1 [2] | IC50 of T cell mediated cytotoxicity, LCLC-103H cells, human T cells, E:T 8:1 [2] | IC50 of T cell mediated cytotoxicity, NCI-H23 cells, human T cells, E:T 8:1 [2] | IC50 of T cell mediated cytotoxicity, NCI-H1650 cells, human T cells, E:T 8:1 [2] | IC50 of T cell mediated cytotoxicity, ZR-75-1 cells, human T cells, E:T 8:1 [2]
1 | binds |  |  |  |  | bsIgG1-huCD3-H101G-FEAL×chROR2-A-FEAR (bispecific antibody) heavy 1: not shown light 1: not shown heavy 2: QSVEESGGRLVTPGTPLTLTCTVSGFSLSSYSMSWVRQAPGKGLEWIGVIYVNSKTWYANWAKGRFTISKTSTTVDLKITSPTTEDTATYFCARGDAGYTTNSWLWGPGTLVTVSSASTKGPSVFPLAPSSKSTSGGTAALGCLVKDYFPEPVTVSWNSGALTSGVHTFPAVLQSSGLYSLSSVVTVPSSSLGTQTYICNVNHKPSNTKVDKRVEPKSCDKTHTCPPCPAPEFEGGPSVFLFPPKPKDTLMISRTPEVTCVVVAVSHEDPEVKFNWYVDGVEVHNAKTKPREEQYNSTYRVVSVLTVLHQDWLNGKEYKCKVSNKALPAPIEKTISKAKGQPREPQVYTLPPSREEMTKNQVSLTCLVKGFYPSDIAVEWESNGQPENNYKTTPPVLDSDGSFFLYSRLTVDKSRWQQGNVFSCSVMHEALHNHYTQKSLSLSPGK light 2: AFELTQTPASVSEPVGGTVTIKCQASESIDNYCSWYQQKPGQPPKLLIYQAFKLASGVPSRFRGSGSGTQFTLTISDLESDDAATYYCQSYSGISTTAFGGGTEVVVKRTVAAPSVFIFPPSDEQLKSGTASVVCLLNNFYPREAKVQWKVDNALQSGNSQESVTEQDSKDSTYSLSSTLTLSKADYEKHKVYACEVTHQGLSSPVTKSFNRGEC | 0.088 µg/mL | 0.424 µg/mL | 0.511 µg/mL | 0.58 µg/mL | 0.693 µg/mL | 0.424 µg/mL
2 |  | 1.7 nM | 0.00085 s⁻¹ | 510000 M⁻¹ s⁻¹ |  | IgG1-ROR2-A-HC2LC1-FEAR (antibody, V domains shown, Humanized variant) VH: QSVLESGGGLVQPGGSLRLSCTVSGFSLSSYSMSWVRQAPGKGLEWIGVIYVNSKTWYANWAKGRFTISKTSTTVYLQMNSLRAEDTATYFCARGDAGYTTNSWLWGQGTLVTVSS VL: AFELTQSPSSLSASVGDRVTITCQASESIDNYCSWYQQKPGKAPKLLIYQAFKLASGVPSRFRGSGSGTDFTLTISSLQSEDFATYYCQSYSGISTTAFGGGTEVVIK |  |  |  |  |  | 
3 |  | 1.8 nM | 0.00089 s⁻¹ | 510000 M⁻¹ s⁻¹ |  | IgG1-ROR2-A-HC2LC2-FEAR (antibody, V domains shown, Humanized variant) VH: QSVLESGGGLVQPGGSLRLSCTVSGFSLSSYSMSWVRQAPGKGLEWIGVIYVNSKTWYANWAKGRFTISKTSTTVYLQMNSLRAEDTATYFCARGDAGYTTNSWLWGQGTLVTVSS VL: AFELTQSPSSLSASVGDRVTITCQASESIDNYLSWYQQKPGKAPKLLIYQAFKLASGVPSRFRGSGSGTDFTLTISSLQSEDFATYYCQSYSGISTTAFGGGTEVVIK |  |  |  |  |  | 
4 |  | 2.2 nM | 0.0011 s⁻¹ | 510000 M⁻¹ s⁻¹ |  | IgG1-ROR2-A-HC2LC4-FEAR (antibody, Humanized variant) heavy: QSVLESGGGLVQPGGSLRLSCTVSGFSLSSYSMSWVRQAPGKGLEWIGVIYVNSKTWYANWAKGRFTISKTSTTVYLQMNSLRAEDTATYFCARGDAGYTTNSWLWGQGTLVTVSSASTKGPSVFPLAPSSKSTSGGTAALGCLVKDYFPEPVTVSWNSGALTSGVHTFPAVLQSSGLYSLSSVVTVPSSSLGTQTYICNVNHKPSNTKVDKRVEPKSCDKTHTCPPCPAPEFEGGPSVFLFPPKPKDTLMISRTPEVTCVVVAVSHEDPEVKFNWYVDGVEVHNAKTKPREEQYNSTYRVVSVLTVLHQDWLNGKEYKCKVSNKALPAPIEKTISKAKGQPREPQVYTLPPSREEMTKNQVSLTCLVKGFYPSDIAVEWESNGQPENNYKTTPPVLDSDGSFFLYSRLTVDKSRWQQGNVFSCSVMHEALHNHYTQKSLSLSPGK VL: DIQLTQSPSSLSASVGDRVTITCQASESIDNYLSWYQQKPGKAPKLLIYQAFKLASGVPSRFRGSGSGTDFTLTISSLQPEDFATYYCQSYSGISTTAFGGGTKVEIK |  |  |  |  |  | 
5 |  | 2 nM | 0.0012 s⁻¹ | 560000 M⁻¹ s⁻¹ |  | IgG1-ROR2-A-HC1LC4-FEAR (antibody, Humanized variant) heavy: QSVLESGGGLVQPGGSLRLSCTVSGFSLSSYSMSWVRQAPGKGLEWIGVIYVNSKTWYANWAKGRFTISKTSTTVDLKITSPTAEDTATYFCARGDAGYTTNSWLWGQGTLVTVSSASTKGPSVFPLAPSSKSTSGGTAALGCLVKDYFPEPVTVSWNSGALTSGVHTFPAVLQSSGLYSLSSVVTVPSSSLGTQTYICNVNHKPSNTKVDKRVEPKSCDKTHTCPPCPAPEFEGGPSVFLFPPKPKDTLMISRTPEVTCVVVAVSHEDPEVKFNWYVDGVEVHNAKTKPREEQYNSTYRVVSVLTVLHQDWLNGKEYKCKVSNKALPAPIEKTISKAKGQPREPQVYTLPPSREEMTKNQVSLTCLVKGFYPSDIAVEWESNGQPENNYKTTPPVLDSDGSFFLYSRLTVDKSRWQQGNVFSCSVMHEALHNHYTQKSLSLSPGK VL: DIQLTQSPSSLSASVGDRVTITCQASESIDNYLSWYQQKPGKAPKLLIYQAFKLASGVPSRFRGSGSGTDFTLTISSLQPEDFATYYCQSYSGISTTAFGGGTKVEIK |  |  |  |  |  | 
6 |  | 2 nM | 0.001 s⁻¹ | 490000 M⁻¹ s⁻¹ |  | IgG1-ROR2-A-HC2LC3-FEAR (antibody, Humanized variant) heavy: QSVLESGGGLVQPGGSLRLSCTVSGFSLSSYSMSWVRQAPGKGLEWIGVIYVNSKTWYANWAKGRFTISKTSTTVYLQMNSLRAEDTATYFCARGDAGYTTNSWLWGQGTLVTVSSASTKGPSVFPLAPSSKSTSGGTAALGCLVKDYFPEPVTVSWNSGALTSGVHTFPAVLQSSGLYSLSSVVTVPSSSLGTQTYICNVNHKPSNTKVDKRVEPKSCDKTHTCPPCPAPEFEGGPSVFLFPPKPKDTLMISRTPEVTCVVVAVSHEDPEVKFNWYVDGVEVHNAKTKPREEQYNSTYRVVSVLTVLHQDWLNGKEYKCKVSNKALPAPIEKTISKAKGQPREPQVYTLPPSREEMTKNQVSLTCLVKGFYPSDIAVEWESNGQPENNYKTTPPVLDSDGSFFLYSRLTVDKSRWQQGNVFSCSVMHEALHNHYTQKSLSLSPGK VL: AFELTQSPSSLSASVGDRVTITCQASESIDNYLSWYQQKPGKAPKLLIYQAFKLASGVPSRFRGSGSGTDFTLTISSLQPEDFATYYCQSYSGISTTAFGGGTKVEIK |  |  |  |  |  | 
7 |  | 1.1 nM | 0.00068 s⁻¹ | 600000 M⁻¹ s⁻¹ | binds | IgG1-ROR2-A-HC4LC3-FEAR (antibody, Humanized variant, full-length IgG1 with L234F, L235E, D265A, K409R; also called IgG1-ROR2-HC4LC3) heavy: EVQLLESGGGLVQPGGSLRLSCTVSGFSLSSYSMSWVRQAPGKGLEWIGVIYVNSKTWYANWAKGRFTISKDNSKNTVYLQMNSLRAEDTATYYCARGDAGYTTNSWLWGQGTLVTVSSASTKGPSVFPLAPSSKSTSGGTAALGCLVKDYFPEPVTVSWNSGALTSGVHTFPAVLQSSGLYSLSSVVTVPSSSLGTQTYICNVNHKPSNTKVDKRVEPKSCDKTHTCPPCPAPEFEGGPSVFLFPPKPKDTLMISRTPEVTCVVVAVSHEDPEVKFNWYVDGVEVHNAKTKPREEQYNSTYRVVSVLTVLHQDWLNGKEYKCKVSNKALPAPIEKTISKAKGQPREPQVYTLPPSREEMTKNQVSLTCLVKGFYPSDIAVEWESNGQPENNYKTTPPVLDSDGSFFLYSRLTVDKSRWQQGNVFSCSVMHEALHNHYTQKSLSLSPGK light: AFELTQSPSSLSASVGDRVTITCQASESIDNYLSWYQQKPGKAPKLLIYQAFKLASGVPSRFRGSGSGTDFTLTISSLQPEDFATYYCQSYSGISTTAFGGGTKVEIKRTVAAPSVFIFPPSDEQLKSGTASVVCLLNNFYPREAKVQWKVDNALQSGNSQESVTEQDSKDSTYSLSSTLTLSKADYEKHKVYACEVTHQGLSSPVTKSFNRGEC |  |  |  |  |  | 
8 | binds | 1.1 nM | 0.00079 s⁻¹ | 720000 M⁻¹ s⁻¹ | binds | chIgG1-ROR2-A-FEAR (antibody, V domains shown, Full-length IgG1 with L234F, L235E, D265A, K409R; also called chIgG1-ROR2-A (with the Fc mutations FEAR)) VH: QSVEESGGRLVTPGTPLTLTCTVSGFSLSSYSMSWVRQAPGKGLEWIGVIYVNSKTWYANWAKGRFTISKTSTTVDLKITSPTTEDTATYFCARGDAGYTTNSWLWGPGTLVTVSS VL: AFELTQTPASVSEPVGGTVTIKCQASESIDNYCSWYQQKPGQPPKLLIYQAFKLASGVPSRFRGSGSGTQFTLTISDLESDDAATYYCQSYSGISTTAFGGGTEVVVKR |  |  |  |  |  | 

From patent publication US20230365714A1 (published 2023)
